US20230002480A1

Columns and labels:
Experiment in all cases: cell-based or functional assay
[1] = molecular target: HIV-1 Env of pseudovirus Q769.d22 (HIV-1)
[2] = molecular target: HIV-1 Env of pseudovirus CNE8 (HIV-1)
[3] = molecular target: HIV-1 Env of pseudovirus Du156.12 (HIV-1)
[4] = molecular target: HIV-1 Env of pseudovirus Q461.e2 (HIV-1)
[5] = molecular target: HIV-1 Env of pseudovirus HIV-16845-2.22 (HIV-1)
[6] = molecular target: HIV-1 Env of pseudovirus CNE5 (HIV-1)
[7] = molecular target: HIV-1 Env of pseudovirus ZM109F.PB4 (HIV-1)
[8] = molecular target: HIV-1 Env of pseudovirus 211-9 (HIV-1)
[9] = molecular target: HIV-1 Env of pseudovirus 231966.c02 (HIV-1)
[10] = molecular target: HIV-1 Env of pseudovirus 263-8 (HIV-1)
[11] = molecular target: HIV-1 Env of pseudovirus CNE17 (HIV-1)
[12] = molecular target: HIV-1 Env of pseudovirus MS208.A1 (HIV-1)
[13] = molecular target: HIV-1 Env of pseudovirus 928-28 (HIV-1)
[14] = molecular target: HIV-1 Env of pseudovirus ZM247v1(Rev-) (HIV-1)
[15] = molecular target: HIV-1 Env of pseudovirus Ce1172_H1 (HIV-1)
[16] = molecular target: HIV-1 Env of pseudovirus Q259.d2.17 (HIV-1)
[17] = molecular target: HIV-1 Env of pseudovirus Q842.d12 (HIV-1)
[18] = molecular target: HIV-1 Env of pseudovirus Ce1086_B2 (HIV-1)
[19] = molecular target: HIV-1 Env of pseudovirus X2088_c9 (HIV-1)
[20] = molecular target: HIV-1 Env of pseudovirus Ce2010_F5 (HIV-1)
[21] = molecular target: HIV-1 Env of pseudovirus 620345.c01 (HIV-1)
[22] = molecular target: HIV-1 Env of pseudovirus 6535.3 (HIV-1)
[23] = molecular target: HIV-1 Env of pseudovirus CNE19 (HIV-1)
[24] = molecular target: HIV-1 Env of pseudovirus CNE58 (HIV-1)
[25] = molecular target: HIV-1 Env of pseudovirus Ce2060_G9 (HIV-1)
[26] = molecular target: HIV-1 Env of pseudovirus WEAU_d15_410_787 (HIV-1)
[27] = molecular target: HIV-1 Env of pseudovirus PVO.4 (HIV-1)
[28] = molecular target: HIV-1 Env of pseudovirus P1981_C5_3 (HIV-1)
[29] = molecular target: HIV-1 Env of pseudovirus 3301.v1.c24 (HIV-1)
[30] = molecular target: HIV-1 Env of pseudovirus A07412M1.vrc12 (HIV-1)
[31] = molecular target: HIV-1 Env of pseudovirus ZM249M.PL1 (HIV-1)
[32] = molecular target: HIV-1 Env of pseudovirus Ce0682_E4 (HIV-1)
[33] = molecular target: HIV-1 Env of pseudovirus BJOX028000.10.3 (HIV-1)
[34] = molecular target: HIV-1 Env of pseudovirus QH0692.42 (HIV-1)
[35] = molecular target: HIV-1 Env of pseudovirus 6041.v3.c23 (HIV-1)
[36] = molecular target: HIV-1 Env of pseudovirus 1054_07_TC4_1499 (HIV-1)

PGT145 (antibody)
IC50 [1]: 0.26 µg/mL | IC80 [1]: 25.5 µg/mL | IC50, titer in TZM.bl cells [2]: 0.272 µg/mL | IC80, titer in TZM.bl cells [2]: 2.24 µg/mL | IC50 [3]: 0.001 µg/mL | IC80 [3]: 0.018 µg/mL | IC50 [4]: 7.8 µg/mL | IC80 [4]: > 50 µg/mL | IC50 [5]: > 50 µg/mL | IC80 [5]: > 50 µg/mL | IC50, titer in TZM.bl cells [6]: 0.001 µg/mL | IC80, titer in TZM.bl cells [6]: 0.013 µg/mL | IC50 [7]: 0.042 µg/mL | IC80 [7]: 0.234 µg/mL | IC50, titer in TZM.bl cells [8]: 0.129 µg/mL | IC80, titer in TZM.bl cells [8]: 0.923 µg/mL | IC50, titer in TZM.bl cells [9]: < 0.001 µg/mL | IC80, titer in TZM.bl cells [9]: 0.01 µg/mL | IC50 [10]: 32.1 µg/mL | IC80 [10]: > 50 µg/mL | IC50 [11]: 0.091 µg/mL | IC80 [11]: 1.16 µg/mL | IC50 [12]: 0.334 µg/mL | IC80 [12]: 18 µg/mL | IC50 [13]: > 50 µg/mL | IC80 [13]: > 50 µg/mL | IC50 [14]: 7.19 µg/mL | IC80 [14]: > 50 µg/mL | IC50 [15]: 0.26 µg/mL | IC80 [15]: 2.06 µg/mL | IC50 [16]: 44.2 µg/mL | IC80 [16]: > 50 µg/mL | IC50 [17]: 0.032 µg/mL | IC80 [17]: 0.552 µg/mL | IC50 [18]: > 50 µg/mL | IC80 [18]: > 50 µg/mL | IC50, titer in TZM.bl cells [19]: > 50 µg/mL | IC80, titer in TZM.bl cells [19]: > 50 µg/mL | IC50 [20]: > 50 µg/mL | IC80 [20]: > 50 µg/mL | IC50, titer in TZM.bl cells [21]: 0.241 µg/mL | IC80, titer in TZM.bl cells [21]: 19.7 µg/mL | IC50 [22]: > 50 µg/mL | IC80 [22]: > 50 µg/mL | IC50 [23]: 0.103 µg/mL | IC80 [23]: 1.13 µg/mL | IC50 [24]: 0.183 µg/mL | IC80 [24]: 7.41 µg/mL | IC50 [25]: 0.016 µg/mL | IC80 [25]: 0.205 µg/mL | IC50 [26]: 1.95 µg/mL | IC80 [26]: 31.5 µg/mL | IC50 [27]: 0.192 µg/mL | IC80 [27]: 0.87 µg/mL | IC50, titer in TZM.bl cells [28]: 5.41 µg/mL | IC80, titer in TZM.bl cells [28]: > 50 µg/mL | IC50, titer in TZM.bl cells [29]: 0.219 µg/mL | IC80, titer in TZM.bl cells [29]: 4.22 µg/mL | IC50, titer in TZM.bl cells [30]: 0.002 µg/mL | IC80, titer in TZM.bl cells [30]: 0.023 µg/mL | IC50 [31]: 1.44 µg/mL | IC80 [31]: > 50 µg/mL | IC50 [32]: 33.6 µg/mL | IC80 [32]: > 50 µg/mL | IC50, titer in TZM.bl cells [33]: > 50 µg/mL | IC80, titer in TZM.bl cells [33]: > 50 µg/mL | IC50 [34]: > 50 µg/mL | IC80 [34]: > 50 µg/mL | IC50, titer in TZM.bl cells [35]: 0.964 µg/mL | IC80, titer in TZM.bl cells [35]: > 50 µg/mL | IC50 [36]: > 50 µg/mL | IC80 [36]: > 50 µg/mL
